Patent US20240197879A1 (Memorial Sloan Kettering, published 2024)

What was measured:
[1] = target: human CD33 on cells (3T3 cells over-expressing CD33; U937, OCi-AML3, HL60, Set2 AML cells with endogenous CD33) (human) (UniProt P20138); test: flow cytometry on U937 AML cells with endogenous CD33 (U937-CD33), Alexa Fluor 647 anti-human F(ab')2 detection, non-linear regression
[2] = target: His tag recombinant human full-length CD33 (human) (UniProt P20138); test: BLI epitope binning: human CD33-His on anti-penta-His biosensor, reference biosensor (buffer), no saturating mAb
[3] = target: His tag recombinant human full-length CD33 (human) (UniProt P20138); test: BLI epitope binning: human CD33-His on anti-penta-His biosensor, pre-saturated with 3P14
[4] = target: His tag recombinant human full-length CD33 (human) (UniProt P20138); test: BLI (Octet Red96e): antibody captured on anti-huFc biosensor, huCD33-His as analyte, 1:1 Langmuir fit
[5] = target: His tag recombinant human full-length CD33 (human) (UniProt P20138); test: BLI epitope binning: human CD33-His on anti-penta-His biosensor, pre-saturated with 4B2A
[6] = target: human CD33 on cells (3T3 cells over-expressing CD33; U937, OCi-AML3, HL60, Set2 AML cells with endogenous CD33) (human) (UniProt P20138); test: flow cytometry on 3T3 cells over-expressing CD33 (3T3-CD33), Alexa Fluor 647 anti-human F(ab')2 detection, non-linear regression
[7] = target: His tag recombinant human full-length CD33 (human) (UniProt P20138); test: BLI epitope binning: human CD33-His on anti-penta-His biosensor, pre-saturated with H195 (self-competition)
[8] = target: T1, His tag recombinant human full-length CD33 (human, UniProt P20138 18-259); test: BLI (Octet Red96e): antibody captured on anti-huFc biosensor, huCD33-His as analyte, 1:1 Langmuir fit
T1 construct: Commercial recombinant protein (R&D Systems / Acro Biosystems); also called huCD33-His; human CD33-His; not shown: 6xHis tag
Procedure: Lead and reference antibodies were produced recombinantly with a human IgG1 constant region. Selectivity was tested using His tag recombinant human full-length CD33 or CD33-IgC, mouse full-length CD33, and cynomolgus full-length CD33 proteins. Recombinant proteins at 5 μg/mL were captured by pre-blocked Ni-NTA plates. Candidate antibodies were added at 10 μg/mL in triplicate and detected using horseradish peroxidase (HRP)-conjugated anti-human Fc antibody. To assess the binding to cell-surface-bound CD33, 3T3 cells overexpressing CD33, as well as the U937 AML cell line, were used. U937 CD33-knockout (CD33KO) or NALM6 cells were included as negative controls. NALM6, U937 CD33⁺, and CD33KO cells were blocked with human IgG Fc for 20 minutes on ice. The recombinant antibodies were then serially diluted starting at 100 μg/mL concentration and added for 30 minutes on ice. Alexa Fluor 647-conjugated goat anti-human F(ab′)₂ was added to cells for 30 minutes on ice, washed and analyzed by flow cytometry, and normalized to secondary-only staining (MFI ratio). EC₅₀ values were determined by non-linear regression. The binding affinity and epitope binning to human CD33 protein was measured by biolayer interferometry (BLI) using an Octet Red96e. All experiments were carried out using kinetic buffer (PBS pH 7.4, 0.01% BSA, 0.002% Tween-20). […]

Chain of His tag recombinant human full-length CD33 (human) (P20138 18-259): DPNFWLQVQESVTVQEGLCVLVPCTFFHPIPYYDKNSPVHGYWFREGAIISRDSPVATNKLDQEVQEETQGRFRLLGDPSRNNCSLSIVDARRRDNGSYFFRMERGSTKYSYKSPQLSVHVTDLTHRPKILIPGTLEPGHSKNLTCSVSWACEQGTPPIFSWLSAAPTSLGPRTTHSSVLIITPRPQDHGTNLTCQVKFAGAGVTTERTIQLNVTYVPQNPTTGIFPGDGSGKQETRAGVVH
Chain of human CD33 on cells (3T3 cells over-expressing CD33; U937, OCi-AML3, HL60, Set2 AML cells with endogenous CD33) (human) (P20138 18-364 limits assumed): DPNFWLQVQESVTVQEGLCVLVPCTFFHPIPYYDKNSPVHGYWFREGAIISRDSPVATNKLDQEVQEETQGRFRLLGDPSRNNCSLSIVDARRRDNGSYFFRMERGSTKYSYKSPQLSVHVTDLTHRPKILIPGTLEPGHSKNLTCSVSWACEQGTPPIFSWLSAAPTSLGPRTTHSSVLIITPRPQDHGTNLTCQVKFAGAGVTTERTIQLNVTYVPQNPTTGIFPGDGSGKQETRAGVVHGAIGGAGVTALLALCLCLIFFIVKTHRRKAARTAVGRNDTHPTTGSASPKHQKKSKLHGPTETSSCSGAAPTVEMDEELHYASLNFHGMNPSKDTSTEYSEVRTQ
T1 sequence (P20138 18-259): as the sequence (P20138 18-259) above

EC50 [1] [nM] | binding of competing mAb, % of reference biosensor [2] [%] | binding of competing mAb, % of reference biosensor [3] [%] | Kd [4] [nM] | kon [4] [M⁻¹ s⁻¹] | binding of competing mAb, % of reference biosensor [5] [%] | EC50 [6] [nM] | binding of competing mAb, % of reference biosensor [7] [%] | Kd [8] [nM] | Binder
0.4 | 100 | 78 | 1.22 | 358000 | 100 | 4.8 | 5 | – | H195 (lintuzumab) (antibody, part only; not given: constant regions, human IgG1, V domains shown, not shown: another chain or arm of the molecule) VH: QVQLVQSGAEVKKPGSSVKVSCKASGYTFTDYNMHWVRQAPGQGLEWIGYIYPYNGGTGYNQKFKSKATITADESTNTAYMELSSLRSEDTAVYYCARGRPAMDYWGQGTLVTVSS VL: DIQMTQSPSSLSASVGDRVTITCRASESVDNYGISFMNWFQQKPGKAPKLLIYAASNQGSGVPSRFSGSGSGTDFTLTISSLQPDDFATYYCQQSKEVPWTFGQGTKVEIK
– | – | – | – | – | – | – | – | 12.9 | 4B2A (antibody, V domains shown, also called TDI-Y-007) VH: EVHLLESGGGLVQPGGSLRLSCAASGFIFSSNAMSWVRQAPGKGLEWVSAISGYGGNTYYADSVKGRFTISRDNSKNTLYLQMNSLRAEDTAVYYCAKWGTYIVGATGDYWGQGTLVTVSS VL: QSALTQPPSASGSPGQSVTISCTGTSNDVGGYNYVSWYQQHPGKAPKLLIYEVSKRPSGVPDRFSGSQSGNTASLTVSGLQAEDEADYYCSSYAGSNNWVFGGGTKLTVL
– | – | – | – | – | – | – | – | 12.1 | 3P14 (antibody, V domains shown, Hybridoma-derived mAb from AlivaMab mice; also called TDI-Y-006) VH: EVQLLESGGGLVQPGGSLRLSCAASGFTFSTYAMSWVRQAPGKGLEWVSAISGRGGSTYYTDSVKGRFTISRDNSKNTVSLQMNSLRAEDTAVYYCAGRGDYYYYYGMDVWGQGTTVTVSA VL: DIVMTQSPLSSPVTLGQPASFSCRSSQSLVYSDGNTYLSWLQQRPGQPPRLLIYKISNRFSGVPDRFSGSGAGTDFTLKISRVEAEDVGVYYCMQSTQFPHTFGQGTKLEIK
